Results from US20060121489 (Board of Regents, The University of Texas System, published 2006).

Columns and labels:
Conditions in all cases: chain copies: 2 (homodimer, stated)
NF-kB p50 homodimer [1] = biological target: T1, NF-kB p50 homodimer (UniProt P19838 P19838:1-433); test: EMSA; stated as sub-nM
[2] = biological target: T2, NF-kB p65 (RelA) homodimer (UniProt Q04206 Q04206:1-551); test: EMSA; p65 homodimer
NF-kB p50 homodimer [3] = biological target: T1, NF-kB p50 homodimer; test: competition; inhibits p65/p65 and p50/p50 equally; nonspecific stickiness
[4] = biological target: T2, NF-kB p65 (RelA) homodimer; test: as above

T2 sequence (Q04206 whole entry, one chain of several): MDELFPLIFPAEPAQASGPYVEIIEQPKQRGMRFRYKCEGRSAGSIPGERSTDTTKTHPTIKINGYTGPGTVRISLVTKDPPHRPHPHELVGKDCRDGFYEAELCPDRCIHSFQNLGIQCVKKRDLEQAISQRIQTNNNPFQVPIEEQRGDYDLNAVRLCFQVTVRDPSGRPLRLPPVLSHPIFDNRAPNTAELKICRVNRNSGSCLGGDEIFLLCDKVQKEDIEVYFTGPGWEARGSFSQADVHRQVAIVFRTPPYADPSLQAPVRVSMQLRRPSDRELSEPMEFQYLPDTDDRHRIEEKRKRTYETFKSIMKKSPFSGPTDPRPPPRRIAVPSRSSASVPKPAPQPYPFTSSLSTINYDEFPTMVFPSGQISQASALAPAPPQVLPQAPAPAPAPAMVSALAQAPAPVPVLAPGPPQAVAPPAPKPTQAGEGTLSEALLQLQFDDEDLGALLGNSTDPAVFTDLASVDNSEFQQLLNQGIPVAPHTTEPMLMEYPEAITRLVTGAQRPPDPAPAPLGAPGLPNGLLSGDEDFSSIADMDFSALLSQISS
T1 sequence (P19838 1-433, one chain of several): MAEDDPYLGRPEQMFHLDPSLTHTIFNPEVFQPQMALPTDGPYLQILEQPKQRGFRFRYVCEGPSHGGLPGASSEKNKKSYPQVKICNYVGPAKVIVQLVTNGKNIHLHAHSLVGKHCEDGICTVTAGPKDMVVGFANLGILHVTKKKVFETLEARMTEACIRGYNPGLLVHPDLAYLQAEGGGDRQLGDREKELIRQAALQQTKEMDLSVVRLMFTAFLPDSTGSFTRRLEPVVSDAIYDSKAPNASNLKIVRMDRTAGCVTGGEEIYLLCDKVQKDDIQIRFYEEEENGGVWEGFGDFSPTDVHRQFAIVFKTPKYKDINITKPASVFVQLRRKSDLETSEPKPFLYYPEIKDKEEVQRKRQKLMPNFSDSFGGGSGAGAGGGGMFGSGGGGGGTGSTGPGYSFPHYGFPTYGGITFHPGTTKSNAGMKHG

Binder	Kd (NF-kB p50 homodimer [1]) [nM]	Kd [2] [nM]	binding result (NF-kB p50 homodimer [3])	binding result [4]
XBY-6 (dsDNA, 6 phosphorodithioate (S2) linkages: 5'-…2TS2CCAC-3' / 3'-GGS2TCCS2TCS2TAAGGS2TG-5') DNA 1: CCAGGAGATTCCAC DNA 2: GTGGAATCTCCTGG	< 1	1.4	–	–
CK-1 42-mer full phosphorothioate (dsDNA, full PS) DNA 1: CCAGGAGATTCCACCCAGGAGATTCCACCCAGGAGATTCCAC DNA 2: GTGGAATCTCCTGGGTGGAATCTCCTGGGTGGAATCTCCTGG	–	–	binds	binds
